This assay concerns the target T1, CSF-1R (Mus musculus, UniProt P09581).
T1 construct: from tissue; host or cells: mouse spleen, in vivo
T1 sequence (P09581 20-977): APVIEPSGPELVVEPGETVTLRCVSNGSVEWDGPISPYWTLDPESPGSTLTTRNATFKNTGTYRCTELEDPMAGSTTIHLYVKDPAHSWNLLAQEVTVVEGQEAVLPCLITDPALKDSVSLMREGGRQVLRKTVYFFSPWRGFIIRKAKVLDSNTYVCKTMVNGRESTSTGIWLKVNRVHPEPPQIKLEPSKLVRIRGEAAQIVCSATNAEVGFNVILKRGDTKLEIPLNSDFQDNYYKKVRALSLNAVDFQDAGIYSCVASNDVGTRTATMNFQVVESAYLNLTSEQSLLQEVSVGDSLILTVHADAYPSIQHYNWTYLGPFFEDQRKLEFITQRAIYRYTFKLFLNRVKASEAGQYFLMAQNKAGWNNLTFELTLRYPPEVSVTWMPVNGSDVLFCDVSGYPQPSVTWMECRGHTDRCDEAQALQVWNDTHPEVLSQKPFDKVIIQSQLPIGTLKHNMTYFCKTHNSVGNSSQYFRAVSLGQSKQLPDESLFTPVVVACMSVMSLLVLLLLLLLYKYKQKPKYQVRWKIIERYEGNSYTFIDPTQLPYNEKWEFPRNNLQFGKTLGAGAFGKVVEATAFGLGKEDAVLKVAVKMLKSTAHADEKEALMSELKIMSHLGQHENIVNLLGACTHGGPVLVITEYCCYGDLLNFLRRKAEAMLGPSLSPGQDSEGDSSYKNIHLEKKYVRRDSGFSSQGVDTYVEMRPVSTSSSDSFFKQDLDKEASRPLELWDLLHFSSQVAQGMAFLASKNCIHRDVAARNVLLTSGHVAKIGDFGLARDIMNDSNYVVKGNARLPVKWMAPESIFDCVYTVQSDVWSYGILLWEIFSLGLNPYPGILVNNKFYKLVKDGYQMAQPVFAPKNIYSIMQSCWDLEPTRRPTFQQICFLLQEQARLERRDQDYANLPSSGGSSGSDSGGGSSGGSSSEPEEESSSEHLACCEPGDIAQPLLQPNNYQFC
Nature of the assay: In vivo pharmacodynamic model: CSF-1-induced splenic c-fos mRNA. As for the experimental part:
Eight hours later, mice were administered saline or 0.8 μg recombinant mouse CSF-1 (Cell Biosciences Inc, Norwood, Mass.) via the tail vein. Fifteen minutes after the tail vein injection, mice were sacrificed and spleens were isolated and snap frozen on dry ice. The frozen tissue was homogenized in 1 ml of Trizol (Invitrogen) per 50 mg of tissue, and RNA was purified according to the Trizol instructions and treated with 6.8 Kunitz units of RNase-free DNase (Qiagen, Valencia, Calif.) to degrade contaminating genomic DNA. The RNA was purified further using RNeasy columns (Qiagen). RT-PCR was performed in 25 μL reaction volumes using Reverse Transciptase qPCR Master Mix (Eurogentec) and approximately 50 ng RNA. Applied Biosystems, Inc., (Foster City, Calif.) was the source for the primer probe set for mouse c-fos mRNA (part# Mm00487425) and 18S rRNA (part# 4333760F). Amplification and detection were performed using the ABI Prism 7000 Sequence Detector system. Standard curves were created for c-fos mRNA and for 18s rRNA using RNA isolated from a vehicle-treated, CSF-1-induced mouse and used to calculate relative expression levels in all other samples. c-fos mRNA values were normalized to 18S rRNA content. Averaged, normalized c-fos content in the saline (no CSF-1) group was assigned a value of one and all other groups were expressed as “fold-induced”.

The source of these data is patent publication US20100256148A1, “USE OF CFMS INHIBITOR FOR TREATING OR PREVENTING BONE CANCER AND THE BONE LOSS AND BONE PAIN ASSOCIATED WITH BONE CANCER” (priority 2007, published 2010).

B1: CSF-1: recombinant mouse CSF-1 (Cell Biosciences Inc), given via the tail vein as challenge (protein, UniProt P07141 33-552, looked up)
Macrophage colony-stimulating …: KEVSEHCSHMIGNGHLKVLQQLIDSQMETSCQIAFEFVDQEQLDDPVCYLKKAFFLVQDIIDETMRFKDNTPNANATERLQELSNNLNSCFTKDYEEQNKACVRTFHETPLQLLEKIKNFFNETKNLLEKDWNIFTKNCNNSFAKCSSRDVVTKPDCNCLYPKATPSSDPASASPHQPPAPSMAPLAGLAWDDSQRTEGSSLLPSELPLRIEDPGSAKQRPPRSTCQTLESTEQPNHGDRLTEDSQPHPSAGGPVPGVEDILESSLGTNWVLEEASGEASEGFLTQEAKFSPSTPVGGSIQAETDRPRALSASPFPKSTEDQKPVDITDRPLTEVNPMRPIGQTQNNTPEKTDGTSTLREDHQEPGSPHIATPNPQRVSNSATPVAQLLLPKSHSWGIVLPLGELEGKRSTRDRRSPAELEGGSASEGAARPVARFNSIPLTDTGHVEQHEGSSDPQIPESVFHLLVPGIILVLLTVGGLLFYKWKWRSHRDPQTLDSSVGRPEDSSLTQDEDRQVELPV
For the molecule B1, for the setting “intravenous recombinant CSF-1”, the “ED50 of splenic c-fos mRNA induction” value is “ca. 0.8 μg/mouse”. For the same molecule, the “induction of splenic c-fos mRNA” value (intravenous recombinant CSF-1, within fifteen minutes) is recorded as 10- to 50 fold.
